Data on 5 substances can be found in patent US6500927B2 (priority 1998, dated 2002).

Assay [1] addresses MOR-1 (mu-opioid receptor-1, full length) (mouse) (UniProt P42866). Briefly: competition with ^3H-DAMGO, CHO cell membranes.
Assay [2] concerns the target MOR-1C splice variant of the mu-opioid receptor-1 (mouse). In words: competition with ^3H-DAMGO, CHO cell membranes.
The target in assay [3] is MOR-1D splice variant of the mu-opioid receptor-1 (mouse) (UniProt P42866). In words: competition with ^3H-DAMGO, CHO cell membranes.
The target of assay [4] is MOR-1E splice variant of the mu-opioid receptor-1 (mouse) (UniProt P42866). In words: competition with ^3H-DAMGO, CHO cell membranes.
For the next assay, the target named is T1, MOR-1D (Mus musculus, UniProt P42866).
T1 construct: The cDNA fragments containing the full length MOR-1 or the MOR-1 variants in pCRII-ToPo were subcloned into pcDNA3.1; expressed in transfected cells
The format is binding. Conditions: MOR-1D vs MOR-1, p<0.05.

Assay [5] deals with MOR-1 (mu-opioid receptor-1, full length) (mouse) (UniProt P42866). In words: saturation radioligand binding, membranes of stably transfected CHO cells.
Assay [6] addresses MOR-1C splice variant of the mu-opioid receptor-1 (mouse). Described as above.
For assay [7], the target named is MOR-1D splice variant of the mu-opioid receptor-1 (mouse) (UniProt P42866). The assay is described as above.
For assay [8], the target named is MOR-1E splice variant of the mu-opioid receptor-1 (mouse) (UniProt P42866). The assay is described as above.
The target of a further assay is T2, MOR-1E (Mus musculus, UniProt P42866).
T2 construct: The cDNA fragments containing the full length MOR-1 or the MOR-1 variants in pCRII-ToPo were subcloned into pcDNA3.1; expressed in transfected cells
Type of assay: binding. The conditions noted are these: MOR-1E vs MOR-1.

On to DADLE (peptide), for which the Ki in assay [1] is 2.1 nM; in assay [2] it was 3.2 nM; in assay [3] it was 1.3 nM; in assay [4], 2.5 nM.

On to “[D-Ser^2, Leu^5]enkephalin-Thr^6 [DSLET]”, for which the “Potency against binding to MOR-1D relative to MOR-1 (in words)” value at MOR-1D is “twice as potent”.

The substance “[D-Ser^2, Leu^5]enkephalin-Thr^6 (DSLET) (peptide)” gave a fold potency against MOR-1 in assay [3] of 2 fold.

In the case of “[D-Ala^2, MePhe^4, Gly(ol)^5]enkephalin (DAMGO) (peptide)”, the Ki stood at 1.8 nM in assay [1], 0.93 nM in assay [2], 0.71 nM in assay [3] and 1.2 nM in assay [4]. The dissociation constant (Kd) in [5] worked out at 1.75 nM; in [6], 0.93 nM; in [7], 0.72 nM; in [8], 1.2 nM.

On to β-endorphin: endogenous opioid peptide, for which, in the assay with MOR-1E, the “Affinity of MOR-1E compared with MOR-1” value was “significantly higher affinity”.
